Reference: patent publication US7238663B2, “Pre-mixes of GLP-1 and basal insulin” (Eli Lilly and Company, priority 2001, dated 2007)
Several values for one entry are separate records, joined by “and”; a condition that tells them apart may be missing. Equal values may be shown once.

Target: T1, human GLP-1 receptor (Homo sapiens, UniProt P43220)
T1 construct: expressed in transfected cells; host or cells: HEK-293 Aurora CRE-BLAM cells
Assay: GLP-1 receptor activation (in vitro potency, CRE-BLAM fluorescence assay)
Format: cell-based
Settings: relative in vitro potency from EC50, HEK-293 Aurora CRE-BLAM cells; Val^8-GLP-1(7-37)OH control = 1
Description: These HEK-293 cells have stably integrated a DNA vector having a cAmp response element (CRE) driving expression of the β-lactamase (BLAM) gene. […] The assay is further described in Zlokarnik, et al., (1998) Science 279:84-88 (See also Example 1).

T1 sequence (P43220 24-463): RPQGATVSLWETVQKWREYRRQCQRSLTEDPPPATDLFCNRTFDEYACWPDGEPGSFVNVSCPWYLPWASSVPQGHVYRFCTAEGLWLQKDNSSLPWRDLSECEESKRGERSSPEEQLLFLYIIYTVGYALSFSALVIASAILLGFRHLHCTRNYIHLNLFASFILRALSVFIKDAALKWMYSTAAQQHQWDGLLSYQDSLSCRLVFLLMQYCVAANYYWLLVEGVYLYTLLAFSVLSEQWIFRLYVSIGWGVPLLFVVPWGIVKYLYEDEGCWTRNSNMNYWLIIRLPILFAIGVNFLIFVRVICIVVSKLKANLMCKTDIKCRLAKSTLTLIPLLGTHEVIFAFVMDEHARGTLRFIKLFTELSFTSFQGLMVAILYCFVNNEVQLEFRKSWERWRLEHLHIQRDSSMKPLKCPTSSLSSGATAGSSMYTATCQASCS

Row | Substance | GLP-1 receptor activation relative to Val^8-GLP-1(7-37)OH
1 | Val^8-Glu^22-Val^25-Ile^33-GLP-1(7-37)OH (HVEGTFTSDVSSYLEEQAVKEFIAWLIKGRG) | 4.9 and 5.8 and 6.7
2 | Val^8-Tyr^16-Glu^22-GLP-1(7-37)OH (HVEGTFTSDYSSYLEEQAAKEFIAWLVKGRG) | 3.6 and 3.8
3 | Val^8-Glu^22-Ile^33-GLP-1(7-37)OH (HVEGTFTSDVSSYLEEQAAKEFIAWLIKGRG) | 4.7 and 3.8 and 3.4
4 | Val^8-Tyr^18-Glu^22-GLP-1(7-37)OH (HVEGTFTSDVSYYLEEQAAKEFIAWLVKGRG) | 5.1 and 5.9
5 | Val^8-Glu^22-Val^25-GLP-1(7-37)OH (HVEGTFTSDVSSYLEEQAVKEFIAWLVKGRG) | 4.7 and 2.9
6 | Val^8-Cys^16-Lys^26-GLP-1(7-37)OH | 4.2
7 | Val^8-Val^16-GLP-1(7-37)OH | 1.1
8 | Val^8-Trp^16-Glu^22-GLP-1(7-37)OH (HVEGTFTSDWSSYLEEQAAKEFIAWLVKGRG) | 4.9 and 4.6
9 | Val^8-Cys^16-Lys^26-Arg^34-GLP-1(7-37)OH | 2.4 and 1.9

Tested on: not listed separately
Assay: GLP aggregation assay (turbidity at 350 nm)
Format: physicochemical
Settings: compared to GLP-1(7-37)OH or Val^8-GLP-1(7-37)OH
Protocol: GLP peptides can be analyzed with respect to their potential to aggregate in solution.
In general, peptides in solution are stirred at elevated temperature in a suitable buffer while recording turbidity at 350 nm as a function of time. Time to the onset of aggregation is measured to quantify the potential of a given GLP molecule to aggregate under these stressed conditions.
A GLP-1 compound is first dissolved under alkaline conditions (pH 10.5) for 30 minutes to dissolve any pre-aggregated material. The solution is then adjusted to pH 7.4 and filtered. Specifically, 4 mg of a lyophilized GLP-1 compound is dissolved in 3 ml of 10 mM phosphate/10 mM citrate. The pH is adjusted to 10.0-10.5 and held for 30 minutes. The solution is adjusted with HCl to pH 7.4 and filtered through a suitable filter, for example a Millex GV syringe filter (Millipore Corporation, Bedford, Mass.). This solution is then diluted to a final sample containing 0.3 mg/mL protein in 10 mM citrate, 10 mM phosphate, 150 mM NaCl, and adjusted to pH 7.4 to 7.5. The sample is incubated at 37° C. in a quartz cuvette. Every five minutes the turbidity of the solution is measured at 350 nm on an AVIV Model 14DS UV-VIS spectrophotometer (Lakewood, N.J.). For 30 seconds prior to and during the measurement the solution is stirred using a magnetic stir bar from Stama Cells, Inc. (Atascadero, Calif.). An increase in OD at 350 nm indicates aggregation of the GLP-peptide. The time to aggregation is approximated by the intersection of linear fits to the pre-growth and growth phase according to method of Drake(Arvinte T, Cudd A, and Drake A F.(1993) J. Bio. Chem. 268, 6415-6422).
The cuvette is cleaned between experiments with a caustic soap solution (e.g., Contrad-70).
The results for a number of GLP-1 compounds are reported in Table 8 as the time in hours required for the compound to aggregate.

Row | Substance | propensity to aggregate in solution
10 | Val^8-Glu^30-GLP-1(7-37)OH (HVEGTFTSDVSSYLEGQAAKEFIEWLVKGRG) | markedly decreased propensity to aggregate
11 | Val^8-His^37-GLP-1(7-37)OH (HVEGTFTSDVSSYLEGQAAKEFIAWLVKGRH) | markedly decreased propensity to aggregate
12 | Val^8-Glu^22-GLP-1(7-37)OH (HVEGTFTSDVSSYLEEQAAKEFIAWLVKGRG) | markedly decreased propensity to aggregate

Tested on: not listed separately
Assay: GLP-1 compound/soluble basal insulin mixtures: clarity and final concentrations by HPLC
Format: physicochemical
Settings: 2.1 mg in 1 ml 0.01 N HCl, pH 11.3 then adjusted to 4.0
Protocol: Exendin-4 (160 μg) was dissolved in 100 μL of commercial Lantus® insulin ([…], 3.6378 mg/mL). […] The solution was stored at 5° C. […] The pH was 4.0 Final concentrations of Exendin-4 and Lantus® were determined by reverse phase HPLC to be 0.9 mg/mL Exendin-4 and 3.5 mg/mL Lantus®. Based on known concentrations of excipients in the commercial formulation of Lantus®, the final concentrations of excipients in the mixture were as follows: 2.7 mg/mL m-cresol, 30 μg/mL zinc, and 17 mg/ml glycerol.
Exendin-4 (290 μg) was dissolved in 100 μL of commercial Lantus® insulin U100, 3.6378 mg/mL). […] The pH of the solution was adjusted to 4.0 with NaOH. Final concentrations of Exendin-4 and Lantus® were determined by reverse phase HPLC to be 1.6 mg/mL Exendin-4 and 3.5 mg/mL Lantus®. […]
Exendin-4 (529 μg) was dissolved in 500 μL of commercial Lantus® insulin (U100, 3.6378 mg/mL). […] Final concentrations of Exendin-4 and Lantus® were calculated to be 1 mg/mL Exendin-4 and 3.5 mg/mL Lantus®. […]
A stock solution of Val^8-Glu^22-GLP-1(7-37)OH was prepared by dissolving 2.1 mg of Val^8-Glu^22-GLP-1(7-37)OH in 1 ml of 0.01 N HCl. […] Final concentrations of Val^8-Glu^22-GLP-1(7-37)OH and Lantus® were determined by reverse phase HPLC to be 0.5 mg/mL Val^8-Glu^22-GLP-1(7-37)OH and 2.4 mg/mL Lantus®. […]

Row | Substance | appearance of stock solution
13 | Val^8-Glu^22-GLP-1(7-37)OH (HVEGTFTSDVSSYLEEQAAKEFIAWLVKGRG) | remained clear

Same assay, conditions: 4.8 mg in 1.5 ml Stock solution A (glycerin, meta-cresol, zinc), pH 11 then adjusted to 4.0

Row | Substance | appearance of stock solution
14 | Val^8-Glu^22-GLP-1(7-37)OH (HVEGTFTSDVSSYLEEQAAKEFIAWLVKGRG) | remained clear
